Measurements published in patent US20220073643A1 (NANJING GENSCRIPT BIOTECH, published 2022).

How the values were obtained:
human Claudin18.2 [1] = target: T1, human Claudin18.2 (human); experiment: FACS, Claudin18.2-HEK293 cells
T1 construct: also called CLDN18.2
Procedure: The binding of chimeric antibodies to Claudin18.2 expressed on HEK293 cells was determine by FACS analysis. Briefly, HEK293 cells expressing human Claudin18.2 as prepared in the foregoing Example were harvested and incubated with anti-Claudin18.2 mAbs at 4° C. for 40 min, followed by fluorophore (iFluor 647)-labeled goat […] IgG (H+L) secondary antibodies at 4° C. for 0.5 hour. The samples were then analyzed by flow cytometry.
After initial screening of cell binding with transfected supernatants, the binding pattern of chimeric and up to 3 humanized antibodies on Claudin18.2 expressed on HEK293 cells were plotted with antibody in 3× serial dilutions, starting concentration of 45 μg/ml, following the protocol described in Example 3.

human Claudin18.2 [2] = target: T1, human Claudin18.2; experiment: cell ELISA, Claudin18.2-expressing HEK293T cells
Method in brief: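 Claudin18.2-expressing HEK293T stable cells (1.5×10⁶ cells/ml in 5% skim milk/PBS blocking buffer) were incubated 1 h at room temperature in plates pre-blocked overnight at 4° C. EC₅₀ was derived by four-parameter curve fit.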

B1: humanized 207F8G5-VH1.1 + VL1.1 (antibody, human IgG1, kappa, V domains shown)
VH: QVQLVQSGAEVKKPGASVKVSCKASGFTFTSYNIHWVKQAPGQGLEWMGYISPGNGGSNYNLKFKDRVTMTSDTSISTAYMELSRLRSDDTAVYFCATGRGFAYWGQGTLVTVSS
VL: DIVMTQSPDSLAVSPGERATMSCKSSQSLFNSGNQKNYLIWYQQKPGQPPKLLIYRASTRDSGVPDRFSGSGSGTDFTLTISSLQAEDVAVYYCQNDYSYPLTFGGGTKLEIKR
notes: humanized, human IgG1/kappa constant regions
**Q.** B1 was tested. Which EC50 (human Claudin18.2 [1]) did it give?
**A.** Its EC50 is 0.168 µg/mL.

**Q.** What about the Span (human Claudin18.2 [1]) of the same binder?
**A.** The Span was 14000.

B2: humanized 232C5E3-VL1.1 + VH1 (antibody, human IgG1, kappa, V domains shown)
VH: QVQLVQSGAEVKKPGASVKVSCKASGYTFTSHNIHWVRQAPGQRLEWMGYIYPGNGGTNYNQKFKARVTITRDTSASTAYMELSSLRSEDTAVYYCARDYYGNSFAYWGQGTLVTVSS
VL: DIVMTQSPDSLAVSLGERATMSCKSSQSLLNSGNQKNYLTWYQQKPGQPPKLLIYWASTRESGVPDRFSGSGSGTDFTLTISSLQAEDVAVYYCQNGYRFPFTFGQGTKLEIKR
notes: as for B1
**Q.** With B2 as the binder, how does the EC50 (human Claudin18.2 [1]) read?
**A.** The EC50 was 0.304 µg/mL.

**Q.** What about the Span (human Claudin18.2 [1]) of the same binder?
**A.** Its Span is 58000.

B3: humanized 410H6H3-VH1.2 + VL1.1 (antibody, human IgG1, kappa, V domains shown)
VH: EVQLVESGGGLVQPGGSRRLSCAASGFTFSSSGMHWVRQAPGKGLEWVSYISSGSNTIYYADTLKGRFTISRDNAKNTLFLQMNSLRAEDTAVYYCARIYYGNSFVYWGQGTLVTVSS
VL: DIVMTQSPDSLAVSLGERATMSCKSSQSLLNSGNQKNYLTWYQQKPGQPPKMLIYWASTRESGVPDRFSGSGSGTDFTLTISSLQAEDVAVYYCQNNYYYPLTFGQGTKLEIKR
notes: as for B1
**Q.** For B3, which EC50 (human Claudin18.2 [1]) is on record?
**A.** The EC50 was 0.555 µg/mL.

**Q.** And the Span (human Claudin18.2 [1])?
**A.** The Span was 64500.

B4: humanized 246B5F2-VH1.1 + VL1 (antibody, human IgG1, kappa, V domains shown)
VH: EVQLLESGGGLVQPGGSLRLSCAASEFTFSNYAMSWVRQAPGKRLEWVATISSGRSSTYYPDSVKGRFTISRDNSKNTLYLQMNSLRAEDTAVYYCAGLGRGNAMEYWGQGTLVTVSS
VL: DIVMTQSPDSLAVSLGERATINCKSSQSLLNSGNQKNYLTWYQQKPGQPPKLLIYWASTRESGVPDRFSGSGSGTDFTLTISSLQAEDVAVYYCQNAYSYPFTFGGGTKLEIKR
notes: as for B1
**Q.** Which results are given for B4?
**A.** EC50 (human Claudin18.2 [1]): 0.104 µg/mL; Span (human Claudin18.2 [1]): 10900

B5: humanized 246B5F2-VH1.1 + VL1.1 (antibody, human IgG1, kappa, V domains shown)
VH: EVQLLESGGGLVQPGGSLRLSCAASEFTFSNYAMSWVRQAPGKRLEWVATISSGRSSTYYPDSVKGRFTISRDNSKNTLYLQMNSLRAEDTAVYYCAGLGRGNAMEYWGQGTLVTVSS
VL: DIVMTQSPDSLAVSLGERATISCKSSQSLLNSGNQKNYLTWYQQKPGQPPKLLIYWASTRESGVPDRFTGSGSGTDFTLTISSLQAEDVAVYYCQNAYSYPFTFGGGTKLEIKR
notes: as for B1
**Q.** What does the source list for B5?
**A.** EC50 (human Claudin18.2 [1]): 0.283 µg/mL; Span (human Claudin18.2 [1]): 14700

B6: humanized 246B5F2-VH1 + VL1 (antibody, human IgG1, kappa, V domains shown)
VH: EVQLLESGGGLVQPGGSLRLSCAASEFTFSNYAMSWVRQAPGKGLEWVSTISSGRSSTYYPDSVKGRFTISRDNSKNTLYLQMNSLRAEDTAVYYCAKLGRGNAMEYWGQGTLVTVSS
VL: DIVMTQSPDSLAVSLGERATINCKSSQSLLNSGNQKNYLTWYQQKPGQPPKLLIYWASTRESGVPDRFSGSGSGTDFTLTISSLQAEDVAVYYCQNAYSYPFTFGGGTKLEIKR
notes: as for B1
**Q.** What does the source list for B6?
**A.** EC50 (human Claudin18.2 [1]): 0.16 µg/mL; Span (human Claudin18.2 [1]): 14200

B7: humanized 207F8G5-VH1.3 + VL1.1 (antibody, human IgG1, kappa, V domains shown)
VH: QVQLVQSGAEVKKPGASVKVSCKASGFTFTSYNIHWVRQAPGQGLEWIGYISPGNGGSNYNLKFKDRATMTSDTSISTAYMELSRLRSDDTAVYFCATGRGFAYWGQGTLVTVSS
VL: DIVMTQSPDSLAVSPGERATMSCKSSQSLFNSGNQKNYLIWYQQKPGQPPKLLIYRASTRDSGVPDRFSGSGSGTDFTLTISSLQAEDVAVYYCQNDYSYPLTFGGGTKLEIKR
notes: as for B1
**Q.** Which EC50 (human Claudin18.2 [1]) does the source give for B7 here?
**A.** Its EC50 is 0.143 µg/mL.

**Q.** What about the Span (human Claudin18.2 [1]) of the same binder?
**A.** Its Span is 13800.

B8: humanized 237D2A4-VH1.2 + VL1 (antibody, human IgG1, kappa, V domains shown)
VH: QVQLQESGPGLVKPSETLSLTCTVSGFSLTSYGVSWIRQPPGKGLEWIGVIWGDGSTNYHSTLISRVTISKDTSKNQVFLKLSSVTAADTAVYYCAKAGRGNALDYWGQGTLVTVSS
VL: DIVMTQSPDSLAVSLGERATINCKSSQSLLNSGNQKNYLTWYQQKPGQPPKLLIYWASTRESGVPDRFSGSGSGTDFTLTISSLQAEDVAVYYCQNDYSFPLTFGGGTKLEIKR
notes: as for B1
**Q.** Which results are given for B8?
**A.** EC50 (human Claudin18.2 [1]): 0.261 µg/mL; Span (human Claudin18.2 [1]): 15700

B9: humanized 232C5E3-VL1.1 + VH1.1 (antibody, human IgG1, kappa, V domains shown)
VH: QVQLVQSGAEVKKPGASVKVSCKASGYTFTSHNIHWVRQAPGQRLEWIGYIYPGNGGTNYNQKFKARATITADTSASTAYMELSSLRSEDTAVYFCARDYYGNSFAYWGQGTLVTVSS
VL: DIVMTQSPDSLAVSLGERATMSCKSSQSLLNSGNQKNYLTWYQQKPGQPPKLLIYWASTRESGVPDRFSGSGSGTDFTLTISSLQAEDVAVYYCQNGYRFPFTFGQGTKLEIKR
notes: as for B1
**Q.** What does the source list for B9?
**A.** EC50 (human Claudin18.2 [1]): 0.224 µg/mL; Span (human Claudin18.2 [1]): 54900

B10: humanized 207F8G5-VH1.7 + VL1 (antibody, human IgG1, kappa, V domains shown)
VH: QVQLVQSGAEVKKPGASVKVSCKASGFTFTSYNIHWVKQAPGQGLEWMGYISPGNGGSNYNLKFKDRVTLTSDTSISTAYMELSRLRSDDTAVYYCATGRGFAYWGQGTLVTVSS
VL: DIVMTQSPDSLAVSLGERATINCKSSQSLFNSGNQKNYLIWYQQKPGQPPKLLIYRASTRDSGVPDRFSGSGSGTDFTLTISSLQAEDVAVYYCQNDYSYPLTFGGGTKLEIKR
notes: as for B1
**Q.** How did the EC50 (human Claudin18.2 [1]) turn out when B10 was run?
**A.** Its EC50 is 0.145 µg/mL.

**Q.** What about the Span (human Claudin18.2 [1]) of the same binder?
**A.** Its Span is 13800.

B11: humanized 232C5E3-VL1.1 + VH1.2 (antibody, human IgG1, kappa, V domains shown)
VH: QVQLVQSGAEVKKPGASVKVSCKASGYTFTSHNIHWIKQAPGQRLEWMGYIYPGNGGTNYNQKFKARVTITADTSASTAYMELSSLRSEDTAVYFCARDYYGNSFAYWGQGTLVTVSS
VL: DIVMTQSPDSLAVSLGERATMSCKSSQSLLNSGNQKNYLTWYQQKPGQPPKLLIYWASTRESGVPDRFSGSGSGTDFTLTISSLQAEDVAVYYCQNGYRFPFTFGQGTKLEIKR
notes: as for B1
**Q.** Which results are given for B11?
**A.** EC50 (human Claudin18.2 [1]): 0.212 µg/mL; Span (human Claudin18.2 [1]): 57900

B12: humanized 370E2B12C3-VH3 + VL1 (antibody, human IgG1, kappa, V domains shown)
VH: QVQLVESGGGVVQPGRSLRLSCAASGFSLTTYGVHWVRQAPGKGLEWVAVIWAGGSTNYNSALMSRFTISRDNSKNTLYLQMNSLRAEDTAVYYCARAAYYGNGLDYWGQGTMVTVSS
VL: DIVMTQSPDSLAVSLGERATINCKSSQTLLNSGNQKNYLTWYQQKPGQPPKLLIYWASTGESGVPDRFSGSGSGTDFTLTISSLQAEDVAVYYCQNAYFYPFTFGGGTKLEIKR
notes: as for B1
**Q.** What does the source list for B12?
**A.** EC50 (human Claudin18.2 [1]): 0.826 µg/mL; Span (human Claudin18.2 [1]): 4650

B13: humanized 370E2B12C3-VH3 + VL2 (antibody, human IgG1, kappa, V domains shown)
VH: QVQLVESGGGVVQPGRSLRLSCAASGFSLTTYGVHWVRQAPGKGLEWVAVIWAGGSTNYNSALMSRFTISRDNSKNTLYLQMNSLRAEDTAVYYCARAAYYGNGLDYWGQGTMVTVSS
VL: DIVMTQSPLSLPVTPGEPASISCKSSQTLLNSGNQKNYLTWYLQKPGQSPQLLIYWASTGESGVPDRFSGSGSGTDFTLKISRVEAEDVGVYYCQNAYFYPFTFGGGTKVEIKR
notes: as for B1
**Q.** What does the source list for B13?
**A.** EC50 (human Claudin18.2 [1]): 0.794 µg/mL; Span (human Claudin18.2 [1]): 4300

B14: humanized 370E2B12C3-VH3 + VL3 (antibody, human IgG1, kappa, V domains shown)
VH: QVQLVESGGGVVQPGRSLRLSCAASGFSLTTYGVHWVRQAPGKGLEWVAVIWAGGSTNYNSALMSRFTISRDNSKNTLYLQMNSLRAEDTAVYYCARAAYYGNGLDYWGQGTMVTVSS
VL: DVVMTQSPLSLPVTLGQPASISCKSSQTLLNSGNQKNYLTWFQQRPGQSPRRLIYWASTGESGVPDRFSGSGSGTDFTLKISRVEAEDVGVYYCQNAYFYPFTFGGGTKVEIKR
notes: as for B1
**Q.** For B14, which EC50 (human Claudin18.2 [1]) is on record?
**A.** Its EC50 is 1.17 µg/mL.

**Q.** What about the Span (human Claudin18.2 [1]) of the same binder?
**A.** The Span was 5520.

B15: 430A11H9 (antibody, V domains shown)
VH: DVKLVESGGGLVKPGGSLKLSCAASGFTFSSYTMSWVRQTPEKRLEWVATISSGGSYTYYPDSVKGRFTISRDNAKNTLYLQMSSLKSEDTAMYYCTRDPGYFAYWGQGTLVTVSA
VL: DIQMTQSPASLSASVGETVTITCRASENIYSYLAWYQQKQGKSPQLLVYNAKTLAEGVPSRFSGSGSGTQFSLKINSLQPEDFGSYYCQHHYGTPYTFGGGTKLEIK
notes: mouse hybridoma mAb
**Q.** With B15 as the binder, how does the EC50 (human Claudin18.2 [2]) read?
**A.** The EC50 was about 1.7 nM.
